For data set [1], the system named is iPS cells (253G1 cells). As to the kind of experiment: iPS cell culture: evaluation of undifferentiated state (immunostaining). The data set is classed as cell-based, human. The following applies: second passage, Day 6 (Culture day 20). How it is done: The cells were cultured in the medium of each group for 3 to 5 weeks, and the following operations were performed on Days 4 to 7 of the passage. After washing the cells with D-PBS, 1 mL/well of 4% formaldehyde was added. After being left to stand for 30 minutes or longer, the solution was removed and washing was performed with D-PBS. 0.1% Triton X-100/D-PBS was added thereto and the mixture was left to stand at room temperature for 3 to 5 minutes. After washing with D-PBS, 1% of BSA/D-PBS was added thereto and the mixture was left to stand for 30 minutes.
An antibody for undifferentiation marker staining, such as OCT4 (Abcam, ab19857) or SSEA4 (Abcam, ab16287), was diluted in 1% BSA/D-PBS at an appropriate ratio, added to a well, which was left to stand for 30 to 60 minutes. After washing with D-PBS, secondary antibodies (a Goat anti-Rabbit IgG antibody (Abcam, ab 150115) and a Goat anti-Mouse IgG antibody (Abcam, ab150077)) were diluted in 1% BSA/D-PBS at an appropriate ratio and added to the wells, which were left to stand with light shielded with an aluminum foil for 30 to 60 minutes. DAPI (DOJINDO LABORATORIES, 340-07971) was diluted with 1% BSA/D-PBS to a concentration of 1 to 10 μg/mL, and added to each well, which was left to stand for 5 minutes. […] The image was acquired by observing the sample under a fluorescence microscope.

For data set [2], the target named is T1, FGFR1-Fc (Homo sapiens, UniProt P11362).
T1 construct: each consisting of an extracellular region of FGFR1; purchased R & D Systems 661-FR
T1 sequence (P11362 22-285 isoform P11362-14 limits assumed): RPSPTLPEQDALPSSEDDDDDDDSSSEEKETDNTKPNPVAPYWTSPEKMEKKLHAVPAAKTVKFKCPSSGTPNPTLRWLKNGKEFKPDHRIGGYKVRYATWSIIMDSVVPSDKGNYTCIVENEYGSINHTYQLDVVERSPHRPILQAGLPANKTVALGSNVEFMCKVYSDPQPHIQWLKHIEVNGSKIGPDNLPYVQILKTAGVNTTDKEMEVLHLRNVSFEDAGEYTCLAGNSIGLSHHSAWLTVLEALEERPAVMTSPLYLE
As to the kind of experiment: Affinity measurement of VHH (monomer) by surface plasmon resonance (SPR). The following applies: 1:1 binding model; for ka: 25° C.; for Kd: Biacore T200, 25° C., read-out: equilibrium dissociation constant (KD). How it is done: Affinity measurement of VHH (monomer) was performed by a surface plasmon resonance (SPR) method.
The binding activity of VHH Clone #1 or VHH Clone #2 immobilized on Series S Sensor Chip CAP (manufactured by Cytiva) with respect to FGFR1-Fc was measured using Biacore (registered trademark) T200 (manufactured by Cytiva). Measurement was performed by CAP Single-cycle Kinetics. The temperature was set to 25° C. As a running buffer, 10 mM HEPES (pH 7.4) (Cytiva) including HBS-EP+(150 mM NaCl, 0.5 mM EDTA, and 0.05% surfactant P20) was used. The measurement order for each run is as follows.
1) Immobilization of biotinylated FGFR1-Fc: The flow rate was set to […], Biotin CAPture Reagent (Cytiva) was added thereto for 300 seconds, then the flow rate was set to […], and an FGFR1-Fc solution diluted with a running buffer was added thereto for 120 seconds to immobilize 140 RU. Here, the “resonance unit (RU)” is a unit used in the above-described Biacore, and a change of an SPR angle of 0.1° is defined as 1,000 RU.
2) Measurement of binding activity: The flow rate was set to 30 μL/mL, and VHH Clone #1 or VHH Clone #2 each diluted to 1.85 nM, 5.56 nM, 16.67 nM, or 50 nM, using a running buffer, was allowed to have an association time set to 120 seconds for binding and a dissociation time set to 600 seconds for interaction.
3) Regeneration of sensor chip surface: The flow rate was set to 10 μL/mL, a solution in which Reaneration stock 1 and Regeneration stock 2 (manufactured by Cytiva) were mixed at the ratio of 3:1 was added thereto for 120 seconds to extract the immobilized VHH. Next, analysis was performed with a 1:1 binding model using Biacore T200 Evaluation (software version 2.0, manufactured by Cytiva), and the binding activity was calculated.

Data set [3] in a line: Thermal stability by protein thermal shift assay (SYPRO Orange). In kind it is physicochemical. The following applies: 0.5 mg/mL in D-PBS, 25° C. to 95° C., 1° C./min. How it is done: The Td is evaluated by a Td value at the time of raising the temperature from 25° C. to 95° C. (temperature rising rate: 1° C./min) under the solution conditions of a protein concentration (0.5 mg/mL) in a D-PBS solution (including 0.2 g of KH2PO4, 1.15 g of Na2HPO4, 0.2 g of KCl, and 8 g of NaCl per liter of the aqueous solution, pH 7.4).
The thermal stability of VHH was measured by a protein thermal shift assay method.
In order to confirm the thermal stability of the VHH monomer Clone #1 and the tandem dimer #1L4, the denaturation temperature (Td) was measured by a protein thermal shift assay method. […] In addition, in order to measure the fluorescence background, a control including no protein was also prepared at the same time, and dispensed into an 8-strip PCR tube (manufactured by Nippon Genetics Co., Ltd.). This tube was set in a real-time PCR measuring device, QuantStudio 3 (manufactured by Thermo Fisher Scientific, Inc.), and a change in fluorescence intensity in a range of 25° C. to 95° C. was measured under the condition of 1° C./min using a fluorescence filter for ROX measurement. After the measurement, Td was calculated using the value obtained by subtracting the background value from the measured value.

This is an account of results in patent publication US20240279618A1, “RECEPTOR TYROSINE KINASE AGONIST, COMPOSITION FOR CELL CULTURE MEDIUM, AND […] MAINTENANCE COMPOSITION” (SEKISUI CHEMICAL CO., LTD., priority 2021, published 2024).

For the molecule “FGF2: fibroblast growth factor (basic), human, recombinant (154aa), positive control; SEQ ID NO: 58 [reference compound]”, the “undifferentiation markers OCT4 and SSEA4” value in data set [1] is recorded as “positive”.

B1: VHH Clone #1: alpaca-derived VHH single-domain antibody (monomer) binding FGFR1, amino acid sequence SEQ ID NO: 17 (protein)
VHH: QLQLVESGGGSVQAGGSLRLSCAASRSLSRFNVWTWYRQAPVKQRELVASITKSGDTNYAESVKGRFIISRDDDKNTVYLQMNNLKSEDTGIYYCAGSYYSGSYLYPSPGGFSVWGQGTQVTVSS
modifications: VHH_Clone_#1
Take B1: in data set [2], the ka is 8.19e+06 M⁻¹ s⁻¹ and the Kd was 1.74 nM. Moreover, in data set [3], the “denaturation temperature (Td)” value came to 74.1 °C.

B2: #1-L4-#1: dimer of VHH #1 with linker L4 (GSEGKSSGSGSESKST), SEQ ID NO: 23 (protein)
VHH: QLQLVESGGGSVQAGGSLRLSCAASRSLSRFNVWTWYRQAPVKQRELVASITKSGDTNYAESVKGRFIISRDDDKNTVYLQMNNLKSEDTGIYYCAGSYYSGSYLYPSPGGFSVWGQGTQVTVSSGSEGKSSGSGSESKSTQLQLVESGGGSVQAGGSLRLSCAASRSLSRFNVWTWYRQAPVKQRELVASITKSGDTNYAESVKGRFIISRDDDKNTVYLQMNNLKSEDTGIYYCAGSYYSGSYLYPSPGGFSVWGQGTQVTVSS
modifications: #1-L4-#1
For the molecule B2, in data set [1], the “undifferentiation markers OCT4 and SSEA4” value is recorded as “positive”. Moreover, the “denaturation temperature (Td)” value in data set [3] worked out at 75.4 °C.

B3: VHH Clone #2: alpaca-derived VHH single-domain antibody (monomer) binding FGFR1, amino acid sequence SEQ ID NO: 18 (protein)
VHH: QVQLVESGGGLVQAGGSLRLSCAVPGSIFRFNTMGWYRQPPGKQRELVAQMSRGGITKYGDSVKGRFTITRDNAKNTVHLQMNSLKPEDTAVYYCAGSYYSGSYYYPSPQGFSVWGQGTQVTVSP
modifications: VHH_Clone_#2
Take B3: in data set [2], the ka was 1.11e+06 M⁻¹ s⁻¹ and the Kd was 1.02 nM.
